Molecular target: T1, MBP (UniProt P0AEX9 27-392 = MBP)
T1 construct: Control without pilin
Assay: co-precipitation of CD147-Fc with MBP immobilised on staphylococci, immunoblot

B1: recombinant human CD147-Fc chimera (Fc fusion)
chain: THGASGAAGTVFTTVEDLGSKILLTCSLNDSATEVTGHRWLKGGVVLKEDALPGQKTEFKVDSDDQWGEYSCVFLPEPMGTANIQLHGPPRVKAVKSSEHINEGETAMLVCKSESVPPVTDWAWYKITDSEDKALMNGSESRFFVSSSQGRSELHIENLNMEADPGQYRCNGTSSKGSDQAIITLRVRSH
notes: Bought from R&D Systems; comprises the Ig domains of CD147 fused to the Fc domain of human IgG1, produced as a disulfide-linked homodimer; also called soluble chimeric CD147-Fc; recombinant soluble form of the extracellular domain of CD147; not shown: Fc domain of human IgG1
Question: Does B1 bind?
Answer: no binding (tested: 1 µg of recombinant human CD147-Fc)

— patent US20150110806A1 (INSTITUT NATIONAL DE LA SANTE ET DE LA RECHERCHE MEDICALE, published 2015)
